Data taken from publication PMC10458775, “A Combined Plasmonic and Electrochemical Aptasensor Based on Gold Nanopit Arrays for the Detection of Human Serum Albumin”.

Target: human serum albumin (HSA) (Homo sapiens, UniProt P02768 25-609)
Test: alternating current voltammetry (electrochemical aptasensor); gold nanopit array with 6-MCH; HSA up to 600 uM; LOD 0.08 nM (not a Kd); 10 mM Tris, 150 mM NaCl, 5 mM KCl, pH 7.4, room temperature; 30 min HSA incubation; aptamer immobilized in 10 mM Tris, 1.5 M NaCl, 1 mM MgCl2, pH 7.4
Conditions: label: 5' ferrocene

human serum albumin (HSA), sequence (P02768 25-609): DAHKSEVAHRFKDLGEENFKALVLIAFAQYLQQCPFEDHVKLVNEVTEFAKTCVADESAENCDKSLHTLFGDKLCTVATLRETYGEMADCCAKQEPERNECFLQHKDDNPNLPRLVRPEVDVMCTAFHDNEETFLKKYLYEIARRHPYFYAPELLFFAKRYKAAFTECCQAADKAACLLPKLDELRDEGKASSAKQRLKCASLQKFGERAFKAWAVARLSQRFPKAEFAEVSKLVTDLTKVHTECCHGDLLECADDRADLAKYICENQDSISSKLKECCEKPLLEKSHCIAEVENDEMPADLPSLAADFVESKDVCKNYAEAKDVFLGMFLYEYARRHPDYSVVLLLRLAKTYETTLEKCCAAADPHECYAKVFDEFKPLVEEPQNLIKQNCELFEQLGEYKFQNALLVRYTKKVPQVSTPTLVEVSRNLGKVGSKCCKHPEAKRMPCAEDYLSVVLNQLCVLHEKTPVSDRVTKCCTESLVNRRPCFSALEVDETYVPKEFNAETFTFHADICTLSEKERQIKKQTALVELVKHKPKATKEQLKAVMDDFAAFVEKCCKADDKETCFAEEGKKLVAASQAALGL

GTCTCAGCTACCTTACCGTATGTGGCCCAAAGCGTCTGGATGGCTATGAA (ssDNA, 3' (CH2)6-SH thiol (disulfide reduced with TCEP), immobilized on gold) [HSA aptamer]
binding result: binds
